First the molecules themselves.
B1: Protein interacting with Hsp90 1 (Saccharomyces cerevisiae), P38768 (parent)
chain: MADFLLRPIKQRHRNEDKYVSVDAADGSVSKIEPIADFVIKTKLLSANGPEKLQDGRKVFINVCHSPLVPKPEVDFNARIVFPLIIQNEWEIPIITSCYRMDHDKKGQECYVWDCCINSDCSRWICDDIQLREILVEWCLESCEIRDSVVLCRDRIAFPKMKKKGAELPALEVLNDELHQDYKAKMHKIIEEEAGDPMSILRGRNDDGDDNNDPDDGTLPPLFPIENKISGAKIEEIDKNEIAHRNLKQAPAPAPAPHEQQEDVPEYEVKMKRFKGAAYKLRILIENKAPNSKPDRFSPSYNFAENILYINGKLSIPLPRDIVVNAADIKIFHIRKERTLYIYI
partner: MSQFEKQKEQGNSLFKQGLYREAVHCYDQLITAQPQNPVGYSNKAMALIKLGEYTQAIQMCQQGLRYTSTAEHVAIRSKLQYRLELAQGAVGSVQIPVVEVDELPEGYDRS

The variants in the experiment derive from B1. To be noted: with tah1_yeast TAH1, P25638.
For N306S, the “effect of a mutation on the interaction” value is “disrupting interaction”.
